Reference: the supplement of paper PMC10065799, “High-throughput profiling of sequence recognition by tyrosine kinases and SH2 domains using bacterial peptide display” (eLife, 2023)

Legend:
[1] = tested on: AncSZ; assay: phosphorylation enrichment, bacterial display (enrichment ratio); higher = better substrate or ligand; peptides without Tyr show the background
[2] = target: EPHB1 (UniProt P54762); assay: as above
[3] = target: EPHB2 (UniProt P29323); assay: as above
[4] = target: FGFR1 (UniProt P11362); assay: as above
[5] = target: FGFR3 (UniProt P22607); assay: as above
[6] = tested on: Fer (mouse); assay: as above
[7] = target: Fes (UniProt P07332); assay: as above
[8] = target: Fyn (UniProt P06241); assay: as above
[9] = target: Hck (UniProt P08631); assay: as above
[10] = target: Jak2 (UniProt O60674); assay: as above
[11] = target: MERTK (UniProt Q12866); assay: as above
[12] = tested on: c-Abl (mouse); assay: as above
[13] = tested on: c-Src; assay: as above
[14] = target: Grb2 SH2 (UniProt P62993); assay: SH2 binding enrichment of the phosphorylated peptide, bacterial display (enrichment ratio); higher = better substrate or ligand; peptides without Tyr show the background
[15] = target: SHP2-C SH2; assay: as above
[16] = target: c-Src SH2; assay: as above
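Throughout, for SH2 binding enrichment of the phosphorylated peptide, bacterial display: peptide library displayed on the E. coli surface as eCPX fusions, selected cells deep-sequenced, score is each peptide's frequency after selection divided by its frequency in the input.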
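Throughout, for phosphorylation enrichment, bacterial display: 11-residue human phosphosite peptides and single-mutation variants displayed on the E. coli surface, counted by deep sequencing, each peptide's frequency after selection divided by its frequency in the unselected input library; frequency after pTyr selection over input frequency; kinase dosed for 20-30% of maximal phosphorylation in three min.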

Chain of Fyn (P06241 whole entry, looked up): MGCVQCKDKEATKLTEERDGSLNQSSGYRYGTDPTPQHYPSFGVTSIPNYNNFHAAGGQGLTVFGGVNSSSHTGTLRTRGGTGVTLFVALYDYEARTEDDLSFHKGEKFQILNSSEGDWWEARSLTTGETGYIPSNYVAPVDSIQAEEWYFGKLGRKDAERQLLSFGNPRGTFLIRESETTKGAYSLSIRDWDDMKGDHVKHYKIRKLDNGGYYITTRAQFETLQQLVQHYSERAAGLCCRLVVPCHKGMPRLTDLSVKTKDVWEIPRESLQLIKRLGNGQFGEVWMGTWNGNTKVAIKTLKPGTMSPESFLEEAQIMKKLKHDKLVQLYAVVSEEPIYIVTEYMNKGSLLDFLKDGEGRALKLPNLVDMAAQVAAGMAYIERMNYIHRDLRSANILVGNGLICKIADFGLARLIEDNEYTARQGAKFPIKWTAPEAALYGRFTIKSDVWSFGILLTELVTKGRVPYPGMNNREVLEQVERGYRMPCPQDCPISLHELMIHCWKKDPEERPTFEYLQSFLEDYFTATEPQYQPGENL
Chain of Jak2 (O60674 whole entry, looked up): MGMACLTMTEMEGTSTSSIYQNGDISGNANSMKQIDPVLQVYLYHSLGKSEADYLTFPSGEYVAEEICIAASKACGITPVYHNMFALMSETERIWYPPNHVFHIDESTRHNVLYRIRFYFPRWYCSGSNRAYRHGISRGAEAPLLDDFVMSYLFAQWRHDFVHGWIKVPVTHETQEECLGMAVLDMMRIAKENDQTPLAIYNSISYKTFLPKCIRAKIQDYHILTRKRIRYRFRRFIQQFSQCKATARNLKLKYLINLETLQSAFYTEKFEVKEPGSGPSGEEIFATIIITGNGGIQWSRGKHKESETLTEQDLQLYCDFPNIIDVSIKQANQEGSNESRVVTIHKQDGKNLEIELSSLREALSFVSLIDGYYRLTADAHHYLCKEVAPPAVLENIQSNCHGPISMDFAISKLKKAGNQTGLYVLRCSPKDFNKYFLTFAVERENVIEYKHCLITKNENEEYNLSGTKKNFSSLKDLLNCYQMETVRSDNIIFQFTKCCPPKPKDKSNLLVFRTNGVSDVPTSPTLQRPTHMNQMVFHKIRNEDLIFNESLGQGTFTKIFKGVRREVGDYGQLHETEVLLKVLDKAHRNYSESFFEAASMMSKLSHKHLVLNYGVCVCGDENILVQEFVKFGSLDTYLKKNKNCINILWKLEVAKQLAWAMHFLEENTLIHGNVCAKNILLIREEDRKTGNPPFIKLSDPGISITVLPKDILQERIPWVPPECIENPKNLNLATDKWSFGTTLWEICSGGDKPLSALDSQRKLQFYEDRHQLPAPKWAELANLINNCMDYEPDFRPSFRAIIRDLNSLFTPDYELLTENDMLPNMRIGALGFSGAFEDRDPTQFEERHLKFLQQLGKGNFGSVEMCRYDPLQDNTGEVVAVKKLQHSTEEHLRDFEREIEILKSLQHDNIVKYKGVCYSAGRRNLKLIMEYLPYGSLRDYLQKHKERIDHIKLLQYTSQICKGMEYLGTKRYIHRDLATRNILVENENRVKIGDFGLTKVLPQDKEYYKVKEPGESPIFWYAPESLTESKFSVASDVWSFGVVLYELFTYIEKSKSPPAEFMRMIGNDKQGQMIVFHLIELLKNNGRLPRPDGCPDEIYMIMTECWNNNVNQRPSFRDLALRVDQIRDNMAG
Chain of EPHB2 (P29323 whole entry, looked up): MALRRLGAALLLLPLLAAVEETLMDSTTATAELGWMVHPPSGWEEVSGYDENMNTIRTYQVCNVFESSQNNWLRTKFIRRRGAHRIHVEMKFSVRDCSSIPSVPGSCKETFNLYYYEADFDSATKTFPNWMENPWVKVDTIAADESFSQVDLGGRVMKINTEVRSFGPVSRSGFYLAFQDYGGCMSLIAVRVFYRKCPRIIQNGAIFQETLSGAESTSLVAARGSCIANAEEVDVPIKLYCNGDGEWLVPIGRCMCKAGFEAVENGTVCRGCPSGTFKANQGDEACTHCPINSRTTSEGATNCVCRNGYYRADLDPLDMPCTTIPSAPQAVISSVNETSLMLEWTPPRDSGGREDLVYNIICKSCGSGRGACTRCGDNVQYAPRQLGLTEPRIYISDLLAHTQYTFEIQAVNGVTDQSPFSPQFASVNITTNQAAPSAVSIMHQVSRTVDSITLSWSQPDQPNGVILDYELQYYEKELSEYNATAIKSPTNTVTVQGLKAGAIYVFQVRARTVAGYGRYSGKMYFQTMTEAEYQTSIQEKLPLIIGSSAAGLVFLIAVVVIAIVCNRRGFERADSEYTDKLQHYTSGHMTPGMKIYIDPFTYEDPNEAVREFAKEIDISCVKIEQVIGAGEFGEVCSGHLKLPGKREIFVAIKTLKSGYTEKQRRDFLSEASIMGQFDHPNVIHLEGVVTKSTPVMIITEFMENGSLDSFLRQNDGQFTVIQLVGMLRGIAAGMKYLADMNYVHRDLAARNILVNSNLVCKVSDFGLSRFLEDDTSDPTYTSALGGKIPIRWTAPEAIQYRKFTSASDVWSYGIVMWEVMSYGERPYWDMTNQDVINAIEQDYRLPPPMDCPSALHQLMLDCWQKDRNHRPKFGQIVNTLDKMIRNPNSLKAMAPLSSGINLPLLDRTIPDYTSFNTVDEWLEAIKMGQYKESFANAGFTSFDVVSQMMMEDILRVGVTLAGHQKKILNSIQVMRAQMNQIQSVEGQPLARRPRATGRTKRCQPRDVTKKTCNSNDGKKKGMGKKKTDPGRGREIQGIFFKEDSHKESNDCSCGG
Chain of FGFR1 (P11362 whole entry, looked up): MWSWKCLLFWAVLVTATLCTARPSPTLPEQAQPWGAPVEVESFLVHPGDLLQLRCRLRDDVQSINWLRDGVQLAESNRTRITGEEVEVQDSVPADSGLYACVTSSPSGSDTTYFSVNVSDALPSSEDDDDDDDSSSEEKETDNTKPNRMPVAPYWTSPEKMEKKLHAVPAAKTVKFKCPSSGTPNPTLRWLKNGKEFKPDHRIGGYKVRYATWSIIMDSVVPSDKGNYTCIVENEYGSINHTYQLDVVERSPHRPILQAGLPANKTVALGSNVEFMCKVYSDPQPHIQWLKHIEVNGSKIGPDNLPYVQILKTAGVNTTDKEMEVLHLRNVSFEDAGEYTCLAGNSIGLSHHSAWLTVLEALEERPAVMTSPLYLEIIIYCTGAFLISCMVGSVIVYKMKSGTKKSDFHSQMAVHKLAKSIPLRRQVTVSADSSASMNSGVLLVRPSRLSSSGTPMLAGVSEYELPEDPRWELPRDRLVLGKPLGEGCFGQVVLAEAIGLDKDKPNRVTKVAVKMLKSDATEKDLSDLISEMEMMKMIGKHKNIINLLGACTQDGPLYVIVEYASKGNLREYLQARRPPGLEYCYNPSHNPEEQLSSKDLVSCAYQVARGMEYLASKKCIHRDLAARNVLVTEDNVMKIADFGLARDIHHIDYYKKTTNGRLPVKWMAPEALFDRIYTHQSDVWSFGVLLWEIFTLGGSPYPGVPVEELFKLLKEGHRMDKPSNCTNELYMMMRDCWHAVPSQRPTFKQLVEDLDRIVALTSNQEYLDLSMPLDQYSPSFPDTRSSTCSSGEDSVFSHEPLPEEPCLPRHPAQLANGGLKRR
Chain of FGFR3 (P22607 whole entry, looked up): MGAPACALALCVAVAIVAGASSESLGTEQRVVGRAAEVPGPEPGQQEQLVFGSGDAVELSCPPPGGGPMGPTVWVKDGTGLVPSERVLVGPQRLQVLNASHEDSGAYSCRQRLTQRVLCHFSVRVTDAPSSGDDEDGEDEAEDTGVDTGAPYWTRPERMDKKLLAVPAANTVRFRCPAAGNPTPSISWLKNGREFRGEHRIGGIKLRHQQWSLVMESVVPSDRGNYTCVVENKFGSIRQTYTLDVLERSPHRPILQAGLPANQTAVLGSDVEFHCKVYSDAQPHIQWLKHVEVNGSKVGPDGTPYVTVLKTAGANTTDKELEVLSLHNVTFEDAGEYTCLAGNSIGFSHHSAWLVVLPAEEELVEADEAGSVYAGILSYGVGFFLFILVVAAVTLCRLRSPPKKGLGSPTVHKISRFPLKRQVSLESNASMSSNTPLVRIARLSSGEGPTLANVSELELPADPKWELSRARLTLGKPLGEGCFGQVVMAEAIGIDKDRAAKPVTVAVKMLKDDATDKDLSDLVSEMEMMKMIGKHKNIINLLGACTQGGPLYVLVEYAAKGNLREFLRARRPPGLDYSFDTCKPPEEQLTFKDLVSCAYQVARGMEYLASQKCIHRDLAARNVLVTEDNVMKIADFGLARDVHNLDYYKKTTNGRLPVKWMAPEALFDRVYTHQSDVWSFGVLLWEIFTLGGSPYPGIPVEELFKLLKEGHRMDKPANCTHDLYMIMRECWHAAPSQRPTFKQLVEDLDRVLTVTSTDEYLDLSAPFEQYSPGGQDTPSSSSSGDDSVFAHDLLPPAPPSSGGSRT
Chain of Hck (P08631 whole entry, looked up): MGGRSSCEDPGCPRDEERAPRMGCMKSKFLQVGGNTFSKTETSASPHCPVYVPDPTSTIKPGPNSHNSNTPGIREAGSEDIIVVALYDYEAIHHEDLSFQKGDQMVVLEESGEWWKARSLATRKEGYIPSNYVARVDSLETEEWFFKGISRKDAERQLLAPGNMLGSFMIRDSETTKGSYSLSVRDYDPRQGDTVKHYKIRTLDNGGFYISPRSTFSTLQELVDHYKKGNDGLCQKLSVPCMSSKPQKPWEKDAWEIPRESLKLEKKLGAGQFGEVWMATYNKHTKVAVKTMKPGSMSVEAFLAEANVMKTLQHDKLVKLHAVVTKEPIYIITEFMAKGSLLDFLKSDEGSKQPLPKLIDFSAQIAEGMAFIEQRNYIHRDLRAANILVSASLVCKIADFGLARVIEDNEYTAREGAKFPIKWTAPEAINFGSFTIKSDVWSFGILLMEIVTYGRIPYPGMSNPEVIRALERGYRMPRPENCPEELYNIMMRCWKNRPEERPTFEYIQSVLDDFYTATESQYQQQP

| Sequence | phosphorylation enrichment [1] | phosphorylation enrichment [2] | phosphorylation enrichment [3] | phosphorylation enrichment [4] | phosphorylation enrichment [5] | phosphorylation enrichment [6] | phosphorylation enrichment [7] | phosphorylation enrichment [8] | phosphorylation enrichment [9] | phosphorylation enrichment [10] | phosphorylation enrichment [11] | phosphorylation enrichment [12] | phosphorylation enrichment [13] | SH2 binding enrichment [14] | SH2 binding enrichment [15] | SH2 binding enrichment [16] |
| --- | --- | --- | --- | --- | --- | --- | --- | --- | --- | --- | --- | --- | --- | --- | --- | --- |
| LQPNNCQFCGG [CSF1R_Y969_Y969C] | 0.929 | 0.735 | 0.711 | 0.752 | 1.21 | 0.348 | 0.858 | 0.752 | 0.987 | 1.05 | 0.785 | 1.07 | 0.647 | 0.943 | 0.865 | 0.709 |
| PATINYPFEKG [NDUFS8_Y84] | 0.88 | 0.65 | 0.218 | 0.521 | 0.565 | 0.595 | 1.18 | 1.04 | 0.342 | 0.776 | 0.556 | 0.491 | 0.674 | 1.09 | 0.587 | 0.663 |
| DFPMGYPSFLA [TBCK_Y153_I151M_YF] | 0.64 | 0.496 | 0.469 | 0.424 | 0.49 | 0.432 | 0.832 | 0.424 | 0.358 | 0.691 | 0.429 | 0.592 | 0.428 | 0.672 | 0.523 | 0.354 |
| DLKFHYDNTAG [KDR_Y1214_P1210L] | 0.804 | 0.515 | 0.504 | 0.517 | 0.661 | 0.466 | 1 | 0.484 | 0.462 | 0.889 | 0.415 | 0.663 | 0.426 | 0.867 | 0.598 | 0.552 |
| IFGVSYGEFRF [CFTR_Y512_D513G_YF] | 0.941 | 0.576 | 0.561 | 0.383 | 0.646 | 0.504 | 1.09 | 5.32 | 4.06 | 0.99 | 0.465 | 0.779 | 5.39 | 1.06 | 1.08 | 0.705 |
| PEFMVYKPQME [CCRL2_Y170_V168M] | 1.03 | 0.665 | 0.624 | 0.592 | 0.867 | 0.476 | 1.06 | 0.494 | 0.661 | 0.898 | 0.464 | 0.685 | 0.884 | 0.794 | 0.635 | 0.457 |
| SLFQFYFQQKG [CHKB_Y381_R377L] | 1.35 | 0.657 | 0.568 | 0.521 | 0.833 | 0.612 | 1.42 | 0.397 | 0.488 | 1.43 | 0.403 | 0.932 | 0.425 | 1.58 | 1.37 | 1.02 |
| LWKWRYEELKE [CCDC102B_Y299_K298R] | 1.34 | 1.28 | 1.09 | 0.503 | 1.02 | 0.771 | 2.5 | 0.629 | 0.561 | 2.73 | 0.909 | 1.7 | 0.715 | 1.29 | 1.36 | 2.08 |
| LLVVLYKYRCY [PSEN1_Y154] | 1.11 | 0.318 | 0.642 | 0.686 | 0.615 | 0.699 | 1.79 | 0.532 | 0.708 | 0.974 | 0.746 | 1.57 | 0.609 | 1.17 | 0.87 | 0.777 |
| YIPFRYPKEFQ [IDS_Y234_H229Y] | 0.777 | 0.464 | 0.485 | 0.748 | 0.658 | 0.425 | 0.656 | 0.644 | 0.831 | 0.477 | 0.554 | 0.464 | 0.768 | 0.768 | 0.602 | 0.572 |
| FVPSFYHAFSG [ACTN4_Y265_S262P_YF] | 0.711 | 1.23 | 0.756 | 0.796 | 0.824 | 0.444 | 0.83 | 1.48 | 1.48 | 0.823 | 7.34 | 0.835 | 1.88 | 0.993 | 1.2 | 0.921 |
| SYPHEYGSQEG [RBM10_Y48_R46H] | 0.835 | 0.483 | 0.44 | 0.54 | 0.559 | 0.411 | 0.87 | 0.402 | 0.458 | 0.767 | 0.465 | 0.591 | 0.415 | 0.825 | 0.699 | 0.441 |
| ALLTKYSRSSM [DSCC1_Y374_H376R] | 0.617 | 0.505 | 0.535 | 0.579 | 0.554 | 0.442 | 0.744 | 0.465 | 0.384 | 0.816 | 0.552 | 0.697 | 0.524 | 0.847 | 0.615 | 0.589 |
| NLMPAYHKCIQ [CYP21A2_Y190_Y191H] | 0.91 | 0.501 | 0.586 | 0.493 | 0.707 | 0.507 | 1.01 | 0.519 | 0.521 | 0.969 | 0.518 | 0.71 | 0.501 | 0.878 | 0.5 | 0.65 |
| YRKNTYNVKST [SYNE2_Y575_I574T] | 0.415 | 0.351 | 0.296 | 0.334 | 0.361 | 0.327 | 0.465 | 0.344 | 0.346 | 0.393 | 0.316 | 0.351 | 0.398 | 0.79 | 0.715 | 0.46 |
| LFSGDCFRIQG [DDR2_Y740_Y740C_YF] | 0.931 | 0.554 | 0.602 | 0.516 | 0.693 | 0.468 | 1.15 | 0.472 | 0.486 | 0.764 | 0.425 | 0.84 | 0.459 | 0.844 | 0.524 | 0.553 |
| DGMADCSDPSF [CDC5L_Y459_Y459C_YF] | 1.21 | 0.627 | 0.659 | 0.533 | 0.701 | 0.627 | 1.29 | 0.524 | 0.6 | 1.01 | 0.525 | 1 | 0.582 | 0.984 | 0.853 | 0.635 |

| Sequence | phosphorylation enrichment [1] | phosphorylation enrichment [2] | phosphorylation enrichment [3] | phosphorylation enrichment [4] | phosphorylation enrichment [5] | phosphorylation enrichment [6] | phosphorylation enrichment [7] | phosphorylation enrichment [8] | phosphorylation enrichment [9] | phosphorylation enrichment [10] | phosphorylation enrichment [11] | phosphorylation enrichment [12] | phosphorylation enrichment [13] | SH2 binding enrichment [14] | SH2 binding enrichment [15] | SH2 binding enrichment [16] |
| --- | --- | --- | --- | --- | --- | --- | --- | --- | --- | --- | --- | --- | --- | --- | --- | --- |
| FFTEEYVRAHP [DOCK2_Y1555_D1558A] | 1.54 | 0.66 | 0.664 | 0.556 | 0.944 | 0.553 | 1.32 | 0.697 | 0.599 | 1.07 | 0.397 | 1.01 | 0.485 | 0.728 | 0.619 | 0.431 |
| GLSDPYVKIHL [SYT2_Y309] | 0.693 | 0.425 | 0.721 | 0.546 | 0.589 | 0.488 | 0.993 | 0.458 | 0.406 | 0.787 | 0.397 | 0.556 | 0.376 | 0.873 | 1.07 | 0.836 |
| TVSSDYLHPQF [CCPG1_Y569_F566S_YF] | 1.8 | 0.823 | 0.538 | 0.514 | 0.753 | 0.495 | 0.927 | 0.404 | 0.444 | 0.779 | 0.411 | 0.877 | 0.457 | 0.848 | 0.704 | 0.527 |
| GVLKEYGEKVL [CPS1_Y529_V531E] | 0.742 | 0.42 | 0.474 | 0.419 | 0.466 | 0.405 | 0.719 | 0.425 | 0.422 | 0.573 | 0.415 | 0.648 | 0.396 | 0.921 | 0.767 | 0.427 |
| LSGVIYVILRK [PMP22_Y153] | 1.01 | 0.46 | 0.23 | 0.443 | 1.11 | 0.504 | 0.823 | 0.279 | 0.513 | 0.633 | 0.364 | 0.923 | 0.484 | 1.89 | 1.4 | 0.841 |
| DDHFTYSRYPW [LY75_Y888] | 1.49 | 4.66 | 7.92 | 0.576 | 0.969 | 0.642 | 1.13 | 4.82 | 6.62 | 1.13 | 1.23 | 1.86 | 5.2 | 0.531 | 0.942 | 0.432 |
| MENFIYESMRY [CYP19A1_Y361] | 1.23 | 5.46 | 3.32 | 0.569 | 0.728 | 13.1 | 3.6 | 8.43 | 6.76 | 0.839 | 2.31 | 1.25 | 6.18 | 0.819 | 0.553 | 0.627 |
| SSPRRYTIAAL [TTR_Y125_G121S] | 0.437 | 0.303 | 0.374 | 0.383 | 0.402 | 0.382 | 0.567 | 0.412 | 0.378 | 0.356 | 0.34 | 0.4 | 0.312 | 0.787 | 0.789 | 0.477 |
| EVEFEYPFRLH [SYP_Y73] | 1 | 0.564 | 0.584 | 0.42 | 0.724 | 0.489 | 1.37 | 0.336 | 0.509 | 1.5 | 0.396 | 0.735 | 0.588 | 0.892 | 0.899 | 0.755 |
| EAMPDYKKQLR [SPATA18_Y229_S227P] | 0.608 | 0.378 | 0.394 | 0.399 | 0.444 | 0.474 | 0.819 | 0.309 | 0.296 | 0.623 | 0.322 | 0.469 | 0.378 | 0.835 | 0.649 | 0.406 |
| LAIELYVVVCK [RHO_Y136_R135L] | 2.14 | 2.12 | 2.06 | 1.4 | 1.64 | 1.17 | 3.23 | 1.14 | 0.861 | 2.07 | 0.597 | 2.59 | 1.11 | 0.976 | 0.67 | 0.458 |
| LRYDSYSSYCN [SLC20A2_Y433] | 1.32 | 2.74 | 5.07 | 0.619 | 0.849 | 0.577 | 1.12 | 0.837 | 0.949 | 0.865 | 1.38 | 0.824 | 1.27 | 0.65 | 0.449 | 1.24 |
| DPAFGYEDFTR [SESN2_Y323_T320A] | 1.08 | 0.455 | 0.577 | 0.569 | 0.775 | 0.457 | 1.21 | 0.533 | 0.594 | 0.987 | 0.445 | 0.764 | 0.59 | 0.991 | 0.693 | 5.24 |
| FKWAVYCIIGR [NUP93_Y391_R388W_YF] | 1.28 | 1.19 | 0.673 | 0.614 | 0.714 | 1.02 | 1.28 | 0.554 | 0.699 | 1.03 | 0.534 | 0.902 | 0.652 | 1.98 | 1.39 | 1.21 |
| KRTFEYEAEKN [DENND2B_Y396_D399E] | 0.771 | 0.43 | 0.431 | 0.511 | 0.527 | 0.436 | 0.769 | 0.501 | 0.463 | 0.798 | 0.505 | 0.675 | 0.518 | 1.06 | 0.703 | 0.535 |
| RLLRGYDQLAF [HLA-C_Y137_S140L_YF] | 0.898 | 0.464 | 0.479 | 0.415 | 0.639 | 0.498 | 0.838 | 0.435 | 0.554 | 1.08 | 0.495 | 0.926 | 0.62 | 1.16 | 0.968 | 4.73 |
